We go through four molecules from article PMC3813506 (2013).

Data set [1] deals with Nupr1-Flag (pcDNA3-Nupr1-Flag) (UniProt O60356). The data set is described as follows: proximity ligation; MiaPaCa-2 cells transfected with Nupr1-Flag and MSL1-V5, treated with cisplatin (5 µM or 10 µM) for 24 h; DuoLink kit; also combined with γ-H2AX staining.
The target in data set [2] is T1, Nupr1 (Homo sapiens, UniProt O60356).
T1 chain: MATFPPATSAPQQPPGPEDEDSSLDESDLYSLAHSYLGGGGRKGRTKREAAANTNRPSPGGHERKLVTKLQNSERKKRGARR
The data set is described as follows: ITC; 40 µM MSL1 injected into 4 µM Nupr1 in the cell; 25°C, 10 mM acetate buffer pH 4.5; single-site binding model; heat of dilution of MSL1 used as reference. On the technique in general: ITC needs no label: the signal is the heat of the interaction.

In data set [3] the test system is Nupr1. Nature of the data set: ITC. The conditions noted are these: apparent; dH -23 kcal/mol; DNA MW assumed (10^4 kDa); chemically damaged with etoposide; ITC: 10 mM acetate pH 4.5, 25 C, 0.03 mg/ml damaged DNA; CD/fluorescence: 50 mM acetate pH 4.5, 25 C, 20 uM protein; agarose gel: 2%, 1x TAE; NMR 25 C.
The subject of data set [4] is TRX-MSL1;Nupr1 (Homo sapiens;). The data set is described as follows: ITC. The conditions noted are these: MSL1 titrated into preformed Nupr1 + damaged-DNA complex; dH 28 kcal/mol; chemically damaged with etoposide; ITC: 10 mM acetate pH 4.5, 25 C, 0.03 mg/ml damaged DNA; CD/fluorescence: 50 mM acetate pH 4.5, 25 C, 20 uM protein; agarose gel: 2%, 1x TAE; NMR 25 C.
A further data set relates to T2, TRX-MSL1 (Homo sapiens).
T2 sequence: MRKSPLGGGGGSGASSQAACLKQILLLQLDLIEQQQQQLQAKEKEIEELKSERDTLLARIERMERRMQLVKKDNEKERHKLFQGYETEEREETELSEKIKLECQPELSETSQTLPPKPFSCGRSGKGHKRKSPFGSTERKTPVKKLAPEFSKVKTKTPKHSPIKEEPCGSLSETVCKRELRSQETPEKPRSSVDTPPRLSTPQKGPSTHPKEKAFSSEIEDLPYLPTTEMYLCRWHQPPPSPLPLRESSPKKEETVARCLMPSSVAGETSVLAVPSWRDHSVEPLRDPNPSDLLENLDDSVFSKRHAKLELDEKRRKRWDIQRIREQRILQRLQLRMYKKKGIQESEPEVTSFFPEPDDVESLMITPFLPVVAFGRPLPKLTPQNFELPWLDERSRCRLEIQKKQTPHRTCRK
The data set is described as follows: ITC. The conditions noted are these: apparent; dH 29 kcal/mol; DNA MW assumed (10^4 kDa); chemically damaged with etoposide; ITC: 10 mM acetate pH 4.5, 25 C, 0.03 mg/ml damaged DNA; CD/fluorescence: 50 mM acetate pH 4.5, 25 C, 20 uM protein; agarose gel: 2%, 1x TAE; NMR 25 C.

Data set [5] deals with T1, Nupr1. The data set is described as follows: ITC.

For the molecule “MSL1-V5 (pcDNA4-MSL1-V5) (from UniProt Q68DK7 1-614) (natural protein)”, in data set [1], the PLA dots (PLA combined with γ-H2AX staining, cisplatin) is 53 PLA dots; the PLA dots per nucleus (5 µM cisplatin) (dots PLA per nucleus) was determined as 32; the PLA dots per nucleus (10 µM cisplatin) (dots PLA per nucleus) stood at 57.
For “TRX-tagged MSL1 (His-tagged TRX-MSL1 fusion protein, human MSL1, 413-residue-long differentially spliced isoform) (natural protein)”, in the data set with Nupr1 [2], the Kd was 2800 nM and the dH amounted to 39 kcal/mol.
For the molecule etoposide-damaged DNA, the Kd in the data set with Nupr1 [3] is 400 nM; in data set [4] it was 800 nM; in the data set with TRX-MSL1 (Homo sapiens), 1200 nM.

B1: MSL1 (protein)
chain: MTMRSAVFKAAAAPAGGNPEQRLDYERAAALGGPEDEPGAAEAHFLPRHRKLKEPGPPLASSQGGSPAPSPAGCGGKGRGLLLPAGAAPGQQEESWGGSVPLPCPPPATKQAGIGGEPAAAGAGCSPRPKYQAVLPIQTGSLVAAAKEPTPWAGDKGGAASPAATASDPAGPPPLPLPGPPPLAPTATAGTLAASEGRWKSMRKSPLGGGGGSGASSQAACLKQILLLQLDLIEQQQQQLQAKEKEIEELKSERDTLLARIERMERRMQLVKKDNEKERHKLFQGYETEEREETELSEKIKLECQPELSETSQTLPPKPFSCGRSGKGHKRKSPFGSTERKTPVKKLAPEFSKVKTKTPKHSPIKEEPCGSLSETVCKRELRSQETPEKPRSSVDTPPRLSTPQKGPSTHPKEKAFSSEIEDLPYLSTTEMYLCRWHQPPPSPLPLRESSPKKEETVARCLMPSSVAGETSVLAVPSWRDHSVEPLRDPNPSDLLENLDDSVFSKRHAKLELDEKRRKRWDIQRIREQRILQRLQLRMYKKKGIQESEPEVTSFFPEPDDVESLMITPFLPVVAFGRPLPKLTPQNFELPWLDERSRCRLEIQKKQTPHRTCRK
modifications: Nupr1 preformed complex with etoposide-damaged DNA
Take B1: the Kd with Nupr1 [5] stood at 800 nM.
